The source of these data is patent publication US20100189657A1, “INTRAMOLECULARLY QUENCHED FLUOROCHROME CONJUGATES AND METHODS OF USE” (THE GENERAL HOSPITAL CORPORATION, priority 2006, published 2010).

“Also recorded” adds a separate entry of the source.

This data set in a line: Aqueous solubility of the probes. Type of data set: physicochemical. Particulars: aqueous solutions. The protocol: The absorption spectra of equimolar solutions of the probes based on the absorption peak of the free dye, CyTE-777 are shown in FIG. 4. […] The absorption band due to dye aggregation becomes slightly weaker with increasing PEG chain length. […] To determine if the aggregated fluorophores lead to quenching, fluorescence spectra of all the three probes were measured and compared to the fluorescence spectrum of an equimolar solution of CyTE-777 (FIG. 5).
These cysteine proteases are known to be important in biological processes and have similar substrate selectivity. […] The Leu-Arg dipeptide cathepsin S substrate was previously reported to be partially but not completely selective to cathepsin S. The selectivity observed for cathepsin S in the present study is higher than what was expected from the literature reports.
With `CC(C)C[C@H](NC(=O)CCNC(=O)CCOCCOCCOCCOCCNC(=O)CCSC1=C(/C=C/C2=[N+](CCCCS(=O)(=O)O)c3ccccc3C2(C)C)CCC/C1=C\C=C1\N(CCCCS(=O)(=O)O)c2ccccc2C1(C)C)C(=O)N[C@@H](CCCNC(=N)N)C(=O)NCCC(=O)NCCCC[C@H](NC(=O)CCNC(=O)[C@H](CCCNC(=N)N)NC(=O)[C@H](CC(C)C)NC(=O)CCNC(=O)CCOCCOCCOCCOCCNC(=O)CCSC1=C(/C=C/C2=[N+](CCCCS(=O)(=O)O)c3ccccc3C2(C)C)CCC/C1=C\C=C1\N(CCCCS(=O)(=O)O)c2ccccc2C1(C)C)C(=O)NCCCC[C@H](NC(=O)[C@H](CCCCNC(=O)CCNC(=O)[C@H](CCCNC(=N)N)NC(=O)[C@H](CC(C)C)NC(=O)CCNC(=O)CCOCCOCCOCCOCCNC(=O)CCSC1=C(/C=C/C2=[N+](CCCCS(=O)(=O)O)c3ccccc3C2(C)C)CCC/C1=C\C=C1\N(CCCCS(=O)(=O)O)c2ccccc2C1(C)C)NC(=O)CCNC(=O)[C@H](CCCNC(=N)N)NC(=O)[C@H](CC(C)C)NC(=O)CCNC(=O)CCOCCOCCOCCOCCNC(=O)CCSC1=C(/C=C/C2=[N+](CCCCS(=O)(=O)O)c3ccccc3C2(C)C)CCC/C1=C\C=C1\N(CCCCS(=O)(=O)O)c2ccccc2C1(C)C)C(=O)NCCC(=O)O` [CyPEG-1], the aqueous solubility result is reported as “practically insoluble”.

Regarding `CC(C)C[C@H](NC(=O)CCNC(=O)CCOCCOCCOCCOCCNC(=O)CCOCCOCCOCCOCCNC(=O)CCSC1=C(/C=C/C2=[N+](CCCCS(=O)(=O)O)c3ccccc3C2(C)C)CCC/C1=C\C=C1\N(CCCCS(=O)(=O)O)c2ccccc2C1(C)C)C(=O)N[C@@H](CCCNC(=N)N)C(=O)NCCC(=O)NCCCC[C@H](NC(=O)CCNC(=O)[C@H](CCCNC(=N)N)NC(=O)[C@H](CC(C)C)NC(=O)CCNC(=O)CCOCCOCCOCCOCCNC(=O)CCOCCOCCOCCOCCNC(=O)CCSC1=C(/C=C/C2=[N+](CCCCS(=O)(=O)O)c3ccccc3C2(C)C)CCC/C1=C\C=C1\N(CCCCS(=O)(=O)O)c2ccccc2C1(C)C)C(=O)NCCCC[C@H](NC(=O)[C@H](CCCCNC(=O)CCNC(=O)[C@H](CCCNC(=N)N)NC(=O)[C@H](CC(C)C)NC(=O)CCNC(=O)CCOCCOCCOCCOCCNC(=O)CCOCCOCCOCCOCCNC(=O)CCSC1=C(/C=C/C2=[N+](CCCCS(=O)(=O)O)c3ccccc3C2(C)C)CCC/C1=C\C=C1\N(CCCCS(=O)(=O)O)c2ccccc2C1(C)C)NC(=O)CCNC(=O)[C@H](CCCNC(=N)N)NC(=O)[C@H](CC(C)C)NC(=O)CCNC(=O)CCOCCOCCOCCOCCNC(=O)CCOCCOCCOCCOCCNC(=O)CCSC1=C(/C=C/C2=[N+](CCCCS(=O)(=O)O)c3ccccc3C2(C)C)CCC/C1=C\C=C1\N(CCCCS(=O)(=O)O)c2ccccc2C1(C)C)C(=O)NCCC(=O)O` [CyPEG-2], the aqueous solubility result is given as “satisfactory aqueous solubility; also recorded: much higher aqueous solubility”. As for `CC(C)C[C@H](NC(=O)CCNC(=O)CCOCCOCCOCCOCCNC(=O)CCOCCOCCOCCOCCNC(=O)CCOCCOCCOCCOCCNC(=O)CCSC1=C(/C=C/C2=[N+](CCCCS(=O)(=O)O)c3ccccc3C2(C)C)CCC/C1=C\C=C1\N(CCCCS(=O)(=O)O)c2ccccc2C1(C)C)C(=O)N[C@@H](CCCNC(=N)N)C(=O)NCCC(=O)NCCCC[C@H](NC(=O)CCNC(=O)[C@H](CCCNC(=N)N)NC(=O)[C@H](CC(C)C)NC(=O)CCNC(=O)CCOCCOCCOCCOCCNC(=O)CCOCCOCCOCCOCCNC(=O)CCOCCOCCOCCOCCNC(=O)CCSC1=C(/C=C/C2=[N+](CCCCS(=O)(=O)O)c3ccccc3C2(C)C)CCC/C1=C\C=C1\N(CCCCS(=O)(=O)O)c2ccccc2C1(C)C)C(=O)NCCCC[C@H](NC(=O)[C@H](CCCCNC(=O)CCNC(=O)[C@H](CCCNC(=N)N)NC(=O)[C@H](CC(C)C)NC(=O)CCNC(=O)CCOCCOCCOCCOCCNC(=O)CCOCCOCCOCCOCCNC(=O)CCOCCOCCOCCOCCNC(=O)CCSC1=C(/C=C/C2=[N+](CCCCS(=O)(=O)O)c3ccccc3C2(C)C)CCC/C1=C\C=C1\N(CCCCS(=O)(=O)O)c2ccccc2C1(C)C)NC(=O)CCNC(=O)[C@H](CCCNC(=N)N)NC(=O)[C@H](CC(C)C)NC(=O)CCNC(=O)CCOCCOCCOCCOCCNC(=O)CCOCCOCCOCCOCCNC(=O)CCOCCOCCOCCOCCNC(=O)CCSC1=C(/C=C/C2=[N+](CCCCS(=O)(=O)O)c3ccccc3C2(C)C)CCC/C1=C\C=C1\N(CCCCS(=O)(=O)O)c2ccccc2C1(C)C)C(=O)NCCC(=O)O` [CyPEG-3], the entry is “satisfactory aqueous solubility”.
